Results published in patent US8735097B2, “Human antibiotic proteins” (Planton GmbH, priority 1999, dated 2014).
Where no end group is shown, it is not given here.

Columns and labels:
Staph aureus = assay: MIC, antimicrobial activity against Staph aureus; type: cell-based, Staphylococcus aureus
Source text: (§1) The following microorganisms were used for the tests: • Escherichia coli (E. coli)—ATCC (American Type Culture Collection) No. 11303 • Pseudomonas aeruginosa—ATCC No. 15442 • Staphylococcus aureus (clinical isolates from the dermatological hospital of Kiel) • Staphylococcus epidermidis (clinical isolates from the dermatological hospital of Kiel) • Candida albicans (clinical isolates from the dermatological hospital of Kiel)
(§2) The microorganisms were cultivated on Trypticase-soy-broth (TSB) agar plates at 37° C. If they were not needed for a long time, they were stored at 4° C. For the tests, in each case a single colony of the corresponding microorganisms was inoculated in 40 ml of TSB medium and incubated overnight at 37° C. while being shaken (250 rpm). To quantify the microorganisms, the optical density of the overnight cultures was measured at 620 nm (OD620), and the colony number was determined by flattening out corresponding dilution stages.
(§3) To be able to assess the dose-dependent range of action of an antimicrobial or antibiotic protein, a liquid culture testing system was used (cf. Ganz et al., 1985). […]
(§4) These batches were incubated in a 96-hole plate (Becton Dickinson, Heidelberg) for 3 hours at 37° C. while being shaken lightly (150 rpm). […] After 24 to 36 hours of growth, the colonies were counted out.

E. coli [1] = assay: MIC, antimicrobial activity against E. coli; type: cell-based, Escherichia coli
Source text: as §1, §2, §3, §4

E. coli [2] = assay: Liquid culture test, LD90 by counting colony-forming units, E. coli; type: cell-based, Escherichia coli; conditions: 3 hours at 37° C., 5·10^4 KBE/ml, 10 mmol sodium phosphate buffer pH 7.4 with 1% TSB
Description: (§5) To be able to assess the dose-dependent range of action of an antimicrobial or antibiotic protein, a liquid culture testing system was used (cf. Ganz et al., 1985).
(§6) About 10 μl of a 1×10^7/ml dilution of the corresponding microorganisms in sodium-phosphate buffer (cf. 3.1) was added to 80 μl of sodium-phosphate buffer together with 1.25% TSB medium (v/v). 10 μl of 0.01% acetic acid was added with the corresponding concentrations of the antimicrobial or antibiotic protein (100 μg/ml, 50 μg/ml, 25 μg/ml, 12.5 μg/ml, and 6.25 μg/ml).
(§7) These batches were incubated in a 96-hole plate (Becton Dickinson, Heidelberg) for 3 hours at 37° C. while being shaken lightly (150 rpm). After the incubation time, tenfold dilution series were made from 50 μl of each of the batches with sodium-phosphate buffer and flattened out (100 μl) in each case in 3 parallel lines on TSB-agar plates. After 24 to 36 hours of growth, the colonies were counted out.
SAP-3 was incubated at the indicated concentrations at 37° C. for 3 hours with 5·10^4 KBE/ml (KBE=colony-forming units) of E. coli and Staphylococcus aureus in 100 μl of 10 mmol of sodium phosphate buffer (pH=7.4) together with 1% TSB (TSB=trypticase-soy broth). The antimicrobial activity of SAP-3 was determined by counting out the KBE on the subsequent day. 100 μl of the respective batches in tenfold dilution stages was flattened out on TSB plates in advance. […]

Staphylococcus aureus [3] = assay: Liquid culture test, LD90 by counting colony-forming units, Staphylococcus aureus; type: cell-based; conditions: 3 hours at 37° C., 10 mmol sodium phosphate buffer pH 7.4 with 1% TSB
Description: as §5, §6, §4
SAP-3 was incubated at the indicated concentrations at 37° C. for 3 hours with 5·10^4 KBE/ml (KBE=colony-forming units) of E. coli and Staphylococcus aureus in 100 μl of 10 mmol of sodium phosphate buffer (pH=7.4) together with 1% TSB (TSB=trypticase-soy broth). The antimicrobial activity of SAP-3 was determined by counting out the KBE on the subsequent day. […]
SAP-2 was incubated at the indicated concentrations at 37° C. for 3 hours with 1·10^5 KBE/ml of the respective microorganisms in 100 μl of 10 mmol of sodium phosphate buffer (pH=7.4) together with 1% TSB. The antimicrobial activity of SAP-2 was determined by counting out the KBE on the subsequent day. […]

gram-negative bacteria = conditions: cited from earlier work
gram-positive bacteria = conditions: cited from earlier work
human RNA = assay: RNase activity; type: biochemical; conditions: 1.2 μg of SAP-2, one hour at 37° C.
Description: RNase activity: 1.2 μg of SAP-2 digested about 5 μg of human RNA in one hour at 37° C.

propionibacterium acnes = assay: Liquid culture test, LD90 by counting colony-forming units, propionibacterium acnes; type: cell-based; conditions: 3 hours at 37° C., 1·10^5 KBE/ml, 10 mmol sodium phosphate buffer pH 7.4 with 1% TSB
Description: as §5, §6, §7
(§8) SAP-2 was incubated at the indicated concentrations at 37° C. for 3 hours with 1·10^5 KBE/ml of the respective microorganisms in 100 μl of 10 mmol of sodium phosphate buffer (pH=7.4) together with 1% TSB. The antimicrobial activity of SAP-2 was determined by counting out the KBE on the subsequent day. 100 μl of the respective batches was flattened out in tenfold dilution stages on TSB plates in advance. Then, the plates were incubated at 37° C. overnight.

Pseudomonas aeruginosa [4] = assay: Liquid culture test, LD90 by counting colony-forming units, Pseudomonas aeruginosa; type: cell-based; conditions: 3 hours at 37° C., 1·10^5 KBE/ml, 10 mmol sodium phosphate buffer pH 7.4 with 1% TSB
Description: as §5, §6, §7, §8

Candida albicans [5] = assay: Liquid culture test, LD90 by counting colony-forming units, Candida albicans; type: cell-based; conditions: 3 hours at 37° C., 1·10^5 KBE/ml, 10 mmol sodium phosphate buffer pH 7.4 with 1% TSB
Description: as §5, §6, §7, §8

E. coli [6] = conditions: cited from earlier work
Klebsiella pneumoniae = conditions: cited from earlier work
Staphylococcus aureus [7] = conditions: cited from earlier work
Pseudomonas aeruginosa [8] = conditions: cited from earlier work
Candida albicans [9] = conditions: cited from earlier work

SAP-3: human antibiotic protein of about 6 kDa isolated from lesional psoriasis scales, SEQ ID NO: 2, to be renamed hBD-3 (GIINTLQKYYCRVRGGRCAVLSCLPKEEQIGKCSTRGRKCCRRKK; listed as Homo sapiens)
MIC, antimicrobial activity against Staph aureus (Staph aureus): <100 µg/mL | MIC, antimicrobial activity against E. coli (E. coli [1]): <20 µg/mL | LD90 for E. coli (E. coli [2]): 2.5 to 5 µg/mL | LD90 for Staphylococcus aureus (Staphylococcus aureus [3]; 5·10^4 KBE/ml): 2.5 to 5 µg/mL

hBD-2: second β-defensin isolated in humans, 41 amino acids, inducible peptide (GIGDPVTCLKSGAICHPVFCPRRYKQIGTCGLPGTKCCKKP; ends and bridges not checked; cysteine pairing not given here; UniProt O15263 24-64, looked up)
LD90 against gram-negative bacteria (gram-negative bacteria): 10 µg/mL | LD90 against gram-positive bacteria (gram-positive bacteria): exceeds 100 μg/ml

B1: SAP-2: human antibiotic protein of about 20 kDa isolated from lesional psoriasis scales, SEQ ID NO: 1, to be renamed RNase 7 (protein, listed as Homo sapiens)
chain: KPKGMTSSQWFKIQHMQPSPQACNSAMKNINKHTKRCKDLNTFLHEPFSSVAATCQTPKIACKNGDKNCHQSHGPVSLTMCKLTSGKYPNCRYKEKRQNKSYVVACKPPQKKDSQQFHLVPVHLDRVL
MIC, antimicrobial activity against Staph aureus (Staph aureus): < 100 µg/mL | MIC, antimicrobial activity against E. coli (E. coli [1]): < 50 µg/mL | RNase activity: human RNA digested (human RNA): about 5 μg | LD90 for Staphylococcus aureus (Staphylococcus aureus [3]; 1·10^5 KBE/ml): 7.5 to 15 µg/mL | LD90 for propionibacterium acnes (propionibacterium acnes): 4 to 7.5 µg/mL | LD90 for Pseudomonas aeruginosa (Pseudomonas aeruginosa [4]): 7.5 to 15 µg/mL | LD90 for Candida albicans (Candida albicans [5]): 15 to 30 µg/mL

B2: TAP: first known epithelial β-defensin, which protects the trachea of bovines, 64 amino acids (protein, UniProt P25068 1-64, looked up)
chain: MRLHHLLLALLFLVLSAWSGFTQGVGNPVSCVRNKGICVPIRCPGSMKQIGTCVGRAVKCCRKK
modifications: ends and bridges not checked
notes: first known epithelial β-defensin, which protects the trachea of bovines, 64 amino acids
minimum inhibition concentration against E. coli (E. coli [6]): 12 to 50 µg/mL | minimum inhibition concentration against Klebsiella pneumoniae (Klebsiella pneumoniae): 12 to 50 µg/mL | minimum inhibition concentration against Staphylococcus aureus (Staphylococcus aureus [7]): 12 to 50 µg/mL | minimum inhibition concentration against Pseudomonas aeruginosa (Pseudomonas aeruginosa [8]): 12 to 50 µg/mL | action on Candida albicans (Candida albicans [9]): destroyed
